Assay results: patent publication US20140179896A1 (published 2014)
Where a chain is given by its changes, count along the chain named.

B1: E3 (designed binder)
chain: EVVAATPTSLLISWRHPHFPTRYYRITYGETGGNSPVQEFTVPLQPPTATISGLKPGVDYTITGYAVTDGRNDRKLMVPISINYRT
notes: Del 1-8 10Fn3 clone; Flag-tagged in vitro translated protein in the radioactive assay; tag left out
B2: E28 (designed binder)
chain: B1 chain with D69L, G70E, D73G, K75E
notes: as for B1
B3: E9 (designed binder)
chain: B1 chain with D69E, G70E, D73G, K75T, M77R, V78T
notes: as for B1
B4: K2 (designed binder)
chain: B1 chain with R71E, D73G, R74Q, K75F, M77L
notes: Del 1-8
B5: K12 (designed binder)
chain: B1 chain with G70V, R71Y, R74H, K75E, L76I, M77K, V78T
notes: Del 1-8
B6: K13 (designed binder)
chain: B1 chain with D69L, G70A, R71L, N72K, D73G, R74H, K75E, M77L, V78T
notes: Del 1-8; 246 used
B7: K3 (designed binder)
chain: B1 chain with D69A, R71W, N72D, R74H, K75E, M77F, V78I
notes: Del 1-8
B8: K8 (designed binder)
chain: B1 chain with D69V, G70T, R71H, D73G, R74H, K75P, V78T
notes: Del 1-8; 279 used
B9: K15 (designed binder)
chain: B1 chain with D69E, G70V, R71H, N72H, K75E, L76I, M77K, V78T
notes: Del 1-8
B10: K6 (designed binder)
chain: B1 chain with R71K, N72D, D73G, K75V, M77L, V78T
notes: Del 1-8
B11: K9 (designed binder)
chain: B1 chain with D69F, R71L, N72Y, D73G, R74K, K75E, M77L, V78I
notes: Del 1-8
B12: K14 (designed binder)
chain: B1 chain with D69R, G70E, R71E, R74H, K75E, M77L, V78I
notes: Del 1-8
B13: K10 (designed binder)
chain: B1 chain with D69T, R71P, K75L, M77F
notes: Del 1-8
B14: K5 (designed binder)
chain: B1 chain with D69M, R71P, R74N, K75E, M77L, V78T
notes: Del 1-8
B15: K4 (designed binder)
chain: B1 chain with D69A, R71Y, R74Q, K75I, V78T
notes: Del 1-8
B16: K1 (designed binder)
chain: B1 chain with D69M, R71L, N72Y, D73G, R74H, K75E, M77L, V78T
notes: Del 1-8
B17: K11 (designed binder)
chain: B1 chain with D69Q, G70A, R71P, K75V, M77Y, V78T
notes: Del 1-8
B18: K7 (designed binder)
chain: B1 chain with D69S, R71H, R74H, K75M, V78I
notes: Del 1-8
B19: K9 (designed binder)
chain: B1 chain with D69F, R71L, N72Y, D73G, R74K, K75E, M77L, V78I
notes: Del 1-8 10Fn3 clone; Flag tag of the assay form not included
B20: K7 (designed binder)
chain: B1 chain with D69S, R71H, R74H, K75M, V78I
notes: as for B19
B21: K6 (designed binder)
chain: B1 chain with R71K, N72D, D73G, K75V, M77L, V78T
notes: as for B19
B22: K10 (designed binder)
chain: B1 chain with D69T, R71P, K75L, M77F
notes: as for B19
B23: K3 (designed binder)
chain: B1 chain with D69A, R71W, N72D, R74H, K75E, M77F, V78I
notes: as for B19
B24: K13 (designed binder)
chain: B1 chain with D69L, G70A, R71L, N72K, D73G, R74H, K75E, M77L, V78T
notes: as for B19
B25: K11 (designed binder)
chain: B1 chain with D69Q, G70A, R71P, K75V, M77Y, V78T
notes: as for B19
B26: K4 (designed binder)
chain: B1 chain with D69A, R71Y, R74Q, K75I, V78T
notes: as for B19
B27: K12 (designed binder)
chain: B1 chain with G70V, R71Y, R74H, K75E, L76I, M77K, V78T
notes: as for B19
B28: K8 (designed binder)
chain: B1 chain with D69V, G70T, R71H, D73G, R74H, K75P, V78T
notes: as for B19
B29: K15 (designed binder)
chain: B1 chain with D69E, G70V, R71H, N72H, K75E, L76I, M77K, V78T
notes: as for B19
B30: K5 (designed binder)
chain: B1 chain with D69M, R71P, R74N, K75E, M77L, V78T
notes: as for B19
B31: K14 (designed binder)
chain: B1 chain with D69R, G70E, R71E, R74H, K75E, M77L, V78I
notes: as for B19
B32: E8 (designed binder)
chain: B1 chain with D69E, G70E, R71W, D73G, K75V, V78T
notes: Del 1-8 10Fn3 clone; Flag tag of the radioactive-assay form not included
B33: E24 (designed binder)
chain: B1 chain with D69V, G70E, K75V, M77F, V78T
notes: as for B32
B34: E16 (designed binder)
chain: B1 chain with D69V, G70E, R71E, D73G, K75Q, V78T
notes: as for B32
B35: E17 (designed binder)
chain: B1 chain with D69V, G70E, R71E, D73G, K75V, M77N, V78T
notes: as for B32
B36: E14 (designed binder)
chain: B1 chain with D69L, G70E, D73G, R74Q, K75V, M77F, V78T
notes: as for B32
B37: E20 (designed binder)
chain: B1 chain with D69V, G70E, D73G, R74Q, K75V, M77Y, V78T
notes: as for B32
B38: E27 (designed binder)
chain: B1 chain with D69V, G70E, D73G, R74H, K75T, V78T
notes: as for B32
B39: E23 (designed binder)
chain: EVVAATPTSLLISWRHHPHFPTRYYRITYGETGGNSPVQEFTVPLQPPTATISGLKPGVDYTITGYAVTVHWNGRELMTPISINYRT
notes: Del 1-8 10Fn3 clone; Flag tag not included

Molecular target: T1, human vascular endothelial growth factor receptor-2 Fc chimera (KDR-Fc) (human, UniProt P35968 20-764)
T1 construct: range 1-764; purchased from R&D Systems; also called hKDR; human VEGF-R2-Fc; not shown: human IgG1 Fc
Assay: radioactive equilibrium binding assay
Description: (§1) To prepare ³⁵S-labeled binding proteins for analysis, mRNA was prepared as described above for RNA-protein fusion production but the linker ligation step was omitted. The mRNA was expressed using rabbit reticulocyte lysate translation kit (Ambion) in the presence of ³⁵S-labeled Met at 30° C. for 1 hour. Expressed protein was purified on M2-agarose Flag beads (Sigma) as described above. This procedure produced the encoded protein without the nucleic acid tail. In a direct binding assay, VEGF-R2-Fc fusions in concentrations ranging from 0 to 200 nM were added to a constant concentration of the purified protein (0.2 or 0.5 nM) and incubated at 30° C. for 1 hour in buffer B. The receptor-binder complexes were captured using Protein A magnetic beads for another 10 minutes at room temperature using a Kingfisher™ The beads were washed with six reaction volumes of buffer B. The protein was eluted from the beads with 100 μL of 0.1 M KOH. […] of the reaction mixture and elution were dried onto a LumaPlate-96 (Packard) and the amount of ³⁵S on the plate was measured using a TopCount NXT instrument (Packard). The amount of fibronectin-based scaffold protein bound to the target was estimated as a percent of radioactivity eluted from Protein A magnetic beads compare to radioactivity in the reaction mixture. Nonspecific binding of fibronectin-based scaffold proteins to the beads was determined by measuring binding in the absence of KDR-Fc and represented less than 1-2% of the input. Specific binding was obtained through subtraction of nonspecific binding from total binding. Data was analyzed using the GraphPad Prizm software (GraphPad Software, Inc, San Diego, Calif.), fitted using a one site, non-linear binding equation.
T1 sequence (P35968 20-764 limits assumed, change not shown, form in doubt): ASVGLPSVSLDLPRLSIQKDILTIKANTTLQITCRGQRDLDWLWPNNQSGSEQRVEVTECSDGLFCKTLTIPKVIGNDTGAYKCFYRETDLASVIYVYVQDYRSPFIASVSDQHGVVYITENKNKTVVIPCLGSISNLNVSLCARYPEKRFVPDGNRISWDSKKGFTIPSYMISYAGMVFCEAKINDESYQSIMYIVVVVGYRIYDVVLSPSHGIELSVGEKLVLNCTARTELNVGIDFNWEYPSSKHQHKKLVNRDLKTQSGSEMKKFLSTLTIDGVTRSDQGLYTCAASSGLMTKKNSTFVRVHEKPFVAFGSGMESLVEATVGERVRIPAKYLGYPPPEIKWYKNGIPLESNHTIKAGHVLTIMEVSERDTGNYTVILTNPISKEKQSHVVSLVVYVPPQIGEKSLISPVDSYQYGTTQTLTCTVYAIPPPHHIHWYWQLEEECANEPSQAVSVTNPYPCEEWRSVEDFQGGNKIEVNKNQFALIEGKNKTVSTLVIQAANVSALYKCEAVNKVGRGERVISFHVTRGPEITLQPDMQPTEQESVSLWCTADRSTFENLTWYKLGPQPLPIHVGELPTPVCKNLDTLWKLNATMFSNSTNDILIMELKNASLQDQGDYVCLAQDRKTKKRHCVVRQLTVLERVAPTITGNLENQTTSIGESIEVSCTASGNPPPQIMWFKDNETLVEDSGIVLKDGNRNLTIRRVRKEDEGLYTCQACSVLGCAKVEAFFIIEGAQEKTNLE

Kd [nM] | Binder
< 1 | B1
< 1.6 | B2
2.4 | B3

Molecular target: T2, mouse vascular endothelial growth factor receptor-2 Fc chimera (Flk-1-Fc) (mouse, UniProt P35918 20-762)
T2 construct: purchased from R&D Systems; also called mouse VEGF-R2-Fc; not shown: Fc part of the purchased chimera
Assay: radioactive equilibrium binding assay
Description: as §1
T2 sequence (P35918 20-762, change not shown): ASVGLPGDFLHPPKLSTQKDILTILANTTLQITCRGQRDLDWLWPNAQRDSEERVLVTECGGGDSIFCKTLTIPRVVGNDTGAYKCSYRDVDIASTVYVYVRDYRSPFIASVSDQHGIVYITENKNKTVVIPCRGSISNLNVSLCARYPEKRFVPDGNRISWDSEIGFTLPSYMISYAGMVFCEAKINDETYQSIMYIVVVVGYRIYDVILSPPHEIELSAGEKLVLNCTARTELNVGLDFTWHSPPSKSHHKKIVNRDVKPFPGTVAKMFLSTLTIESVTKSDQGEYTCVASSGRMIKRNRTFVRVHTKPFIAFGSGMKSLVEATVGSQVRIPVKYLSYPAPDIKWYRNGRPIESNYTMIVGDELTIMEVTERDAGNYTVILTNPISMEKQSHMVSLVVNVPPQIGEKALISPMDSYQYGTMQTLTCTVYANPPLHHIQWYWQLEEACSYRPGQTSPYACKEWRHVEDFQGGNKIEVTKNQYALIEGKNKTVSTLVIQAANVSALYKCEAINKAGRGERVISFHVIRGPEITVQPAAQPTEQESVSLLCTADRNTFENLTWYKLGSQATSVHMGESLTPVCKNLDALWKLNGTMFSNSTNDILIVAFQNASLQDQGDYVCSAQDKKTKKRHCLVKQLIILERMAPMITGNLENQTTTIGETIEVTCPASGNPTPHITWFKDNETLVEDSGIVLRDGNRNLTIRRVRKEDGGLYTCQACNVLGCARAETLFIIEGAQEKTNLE

Kd [nM] | Binder
5.4 | B1
2.1 | B2
< 1.4 | B3

Molecular target: T3, human vascular endothelial growth factor receptor-2 Fc chimera (KDR-Fc) (human, UniProt P35968 20-764)
T3 construct: range 1-764; also called human VEGFR-2; VEGF-R2-Fc; not shown: human IgG1 Fc
Assay: radioactive equilibrium binding, KDR-Fc
Description: as §1
T3 sequence (P35968 20-764 limits assumed, change not shown, form in doubt): as the sequence (P35968 20-764 limits assumed, change not shown, form in doubt) above

Kd [nM] | Binder
1.19 | B4
0.62 | B5
0.58 | B6
1.15 | B7
3.3 | B8
0.35 | B9
0.93 | B10
1.8 | B11
0.57 | B12
0.57 | B13
1.54 | B14
1.95 | B15
0.55 | B16
1.16 | B17
2.2 | B18

Molecular target: T3, human vascular endothelial growth …
Assay: radioactive equilibrium binding, 1 nM KDR-Fc
Procedure, shortened: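 Read-out: eluted ³⁵S as % of input radioactivity, minus bead-only binding without KDR-Fc (under 1-2% of input); one-site non-linear fit. Tracer binder 0.2 or 0.5 nM, receptor-Fc 0–200 nM, 1 h at 30° C in buffer B.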

Binding to 1 nM KDR, % [%] | Binder
48 | B4
29 | B5
17 | B6
45 | B7
18 | B8
25 | B9
27 | B10
35 | B11
20 | B12
33 | B13
47 | B14
38 | B15
48 | B16
24 | B17
40 | B18

Molecular target: T4, human vascular endothelial growth factor receptor-2 Fc chimera (KDR-Fc) (human, UniProt P35968 20-764)
T4 construct: range 1-764; also called human VEGFR-2; hKDR; not shown: human IgG1 Fc
Assay: radioactive equilibrium binding (assay not given)
Description: as §1
T4 sequence (P35968 20-764 limits assumed, change not shown, form in doubt): as above

Kd [nM] | Binder
1.8 | B19
2.2 | B20
0.93 | B21
0.57 | B22
1.15 | B23
0.58 | B24
1.16 | B25
1.95 | B26
0.62 | B27
3.3 | B28
0.35 | B29
1.54 | B30
0.57 | B31

Molecular target: T4, human vascular endothelial growth …
Assay: binding to 1 nM KDR-Fc, % of input; radioactive equilibrium binding (assay not given)
Description: as §1

Binding to 1 nM KDR, % [%] | Binder
51 | B32
24 | B33
35 | B34
32 | B35
33 | B36
35 | B19
43 | B37
40 | B20
37 | B38
27 | B21
33 | B22
45 | B23
17 | B24
24 | B25
38 | B26
29 | B27
18 | B28
25 | B29
47 | B30
20 | B31
36 | B39

Molecular target: T5, mouse vascular endothelial growth factor receptor-2 Fc chimera (Flk-1-Fc) (mouse, UniProt P35918 20-762)
T5 construct: Purchased from R&D Systems; also called mouse VEGF-R2; not shown: Fc part of the purchased chimera
Assay: binding to 1 nM Flk-1-Fc, % of input; radioactive equilibrium binding (assay not given)
Description: as §1
T5 sequence (P35918 20-762, change not shown): as the sequence (P35918 20-762, change not shown) above

Binding to 1 nM FLK, % [%] | Binder
10 | B32
29 | B33
0 | B34
10 | B35
11 | B36
11 | B37
9 | B38
7 | B39
